Experimental data as given in publication PMC9408933, “Discovery of the Key Mutation Site Influencing the Thermostability of Thermomyces lanuginosus Lipase by Rosetta Design Programs” (International Journal of Molecular Sciences, 2022).

Each substance was assayed on T1, CCCCCCCCCCCCCCCC(=O)Oc1ccc([N+](=O)[O-])cc1 (assay: p-nitrophenol release, Michaelis-Menten fit). Settings: 37 °C, pH 9.0, 100 mM Tris-HCl, pNPP 0.08-10.00 mM, apparent Km.
T1 construct: N-terminal His-tag, secreted from Pichia pastoris GS115 (pPIC9K), Ni-NTA purified
Type: biochemical, Thermomyces lanuginosus
From the text: p-nitrophenol release, Michaelis-Menten fit on TLL (Thermomyces lanuginosus lipase)

Q: For “TLL (Thermomyces lanuginosus lipase) (Thermomyces lanuginosus; R231H)”, which Km is on record?
A: 180 ± 20 µM

Q: And the Vmax?
A: 330 µmol/min/mg

Q: And the kcat?
A: 790 ± 22.7 s⁻¹

Q: And the kcat/Km?
A: 4.39e+06 ± 126000 M⁻¹ s⁻¹

Q: Which results are given for “TLL (Thermomyces lanuginosus lipase) (Thermomyces lanuginosus; R231T)”?
A: Km: 190 ± 30 µM; Vmax: 344 µmol/min/mg; kcat: 1090 ± 27.6 s⁻¹; kcat/Km: 5.75e+06 ± 146000 M⁻¹ s⁻¹

Q: How did the Km turn out when “TLL (Thermomyces lanuginosus lipase) (Thermomyces lanuginosus; R231M)” was run?
A: 190 ± 30 µM

Q: What about the Vmax of the same substance?
A: 319 µmol/min/mg

Q: What about the kcat of the same substance?
A: 765 ± 17.6 s⁻¹

Q: And the kcat/Km?
A: 4.02e+06 ± 92400 M⁻¹ s⁻¹

Q: What does the source list for “TLL (Thermomyces lanuginosus lipase) (Thermomyces lanuginosus; R231Q)”?
A: Km: 230 ± 30 µM; Vmax: 354 µmol/min/mg; kcat: 788 ± 7.98 s⁻¹; kcat/Km: 3.42e+06 ± 34700 M⁻¹ s⁻¹

Q: For “TLL (Thermomyces lanuginosus lipase) (Thermomyces lanuginosus; R231V)”, which Km is on record?
A: 140 ± 20 µM

Q: And the Vmax?
A: 260 µmol/min/mg

Q: What about the kcat of the same substance?
A: 713 ± 8.11 s⁻¹

Q: What about the kcat/Km of the same substance?
A: 5.09e+06 ± 57900 M⁻¹ s⁻¹

Q: Which results are given for “TLL (Thermomyces lanuginosus lipase) (Thermomyces lanuginosus; R231E)”?
A: Km: 140 ± 20 µM; Vmax: 301 µmol/min/mg; kcat: 1230 ± 27.6 s⁻¹; kcat/Km: 8.79e+06 ± 197000 M⁻¹ s⁻¹

Q: Which Km does the source give for “TLL (Thermomyces lanuginosus lipase) (Thermomyces lanuginosus; R231I)” here?
A: 180 ± 20 µM

Q: And the Vmax?
A: 303 µmol/min/mg

Q: And the kcat?
A: 767 ± 22.8 s⁻¹

Q: What about the kcat/Km of the same substance?
A: 4.26e+06 ± 127000 M⁻¹ s⁻¹

Q: How did the Km turn out when “TLL (Thermomyces lanuginosus lipase) (Thermomyces lanuginosus; R231K)” was run?
A: 170 ± 20 µM

Q: What about the Vmax of the same substance?
A: 345 µmol/min/mg

Q: What about the kcat of the same substance?
A: 1100 ± 14 s⁻¹

Q: What about the kcat/Km of the same substance?
A: 6.5e+06 ± 82500 M⁻¹ s⁻¹

Q: Which results are given for “TLL (Thermomyces lanuginosus lipase) (Thermomyces lanuginosus; R231A)”?
A: Km: 230 ± 30 µM; Vmax: 384 µmol/min/mg; kcat: 1220 ± 43 s⁻¹; kcat/Km: 5.31e+06 ± 187000 M⁻¹ s⁻¹

Q: For “TLL (Thermomyces lanuginosus lipase) (Thermomyces lanuginosus; R231P)”, which Km is on record?
A: 160 ± 20 µM

Q: And the Vmax?
A: 339 µmol/min/mg

Q: And the kcat?
A: 1387 ± 12.8 s⁻¹

Q: What about the kcat/Km of the same substance?
A: 8.669e+06 ± 80300 M⁻¹ s⁻¹
